This is an account of results in the domain aggregation screens of Martell et al. (2025).

The nature of this series: soluble fraction after stress (log2 fold change); higher = more stays soluble; pooled small domains, quantitative proteomics. To be noted: stress: pH 4. The essentials: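 Aggregation propensity is estimated from the fold change in each domain's soluble amount after acid stress. Pooled small-domain libraries were stressed at pH 4, and higher log2 values mean more stayed soluble.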
Turning to “HMDAPHPSVVQVYFESRDRSWTYYNDRFDLHEGDLVYVEGKLEGVRGRVVEVSYNFRIKLADYKRVIAVA”, the “soluble fraction (log2)” value is -0.122.

As to “HMDASSAVQFGSLLRDARRRQGLSQAELGGDKYSGSYISHLESGRRVATPEVIEFLSRRLGVSPLEWGVS”, the “soluble fraction (log2)” value is -0.026.

As to “HMDASSTGFLGKHVQIVGLVSQPHLNGRRGVASRFDSNRRRYLVRLDEIDGHAEVVAFRPDNLVLSNLL”, the “soluble fraction (log2)” value was -0.0982.

Take “HMDASVTIEQVERMVQANVSDDVIISQLQGRGAAQNLSTDDIINLTQKGISAEVIKAYQSAG”: the “soluble fraction (log2)” value was -0.934.

For “HMDAVLMEYDRLLALELTEDPDVYQDLLDKVREQSLGADGRVTDKYREKFDAVATRFDDYEDNYQW”, the “soluble fraction (log2)” value is -0.62.

With “HMDAVQAGKRVLIVDDLIATGGTAKAATDLIEKAGGTVVGFSFVMRLDGLDGLDKLDGKPSSSLIAMP”, the “soluble fraction (log2)” value was -0.0677.

As for “HMDAYMGEAKDEETFAEEYLNDSGLLNEIPESVARYFDIVAYARDLLIGDFSLHDGHVFNMT”, the “soluble fraction (log2)” value was -0.377.

On to “HMDDAFLNKEMLKQALENLNEREKKLIYLRFYEGLTQKEIADRLSLSQMHVSRLLNESLNKLRRKI”, for which the “soluble fraction (log2)” value is -0.0579.

Turning to “HMDDATDLPYQEFRTQVSDGQVKIAQFNNNTGKITFESISGDKFKTSGPLELSSDDERLFLENIEDFKFFT”, the “soluble fraction (log2)” value was -1.1.

On to “HMDDATDVPYQEFRTQVTSGQVEIAQFNNNTGKISFQSTSGEKFETSGPLELSSDDERLFLENIEDFKFFT”, for which the “soluble fraction (log2)” value is -1.63.

On to “HMDDATIKVNIAAKFLNAGNNLFVDIDTTVLEGRVLLTGLVDTQEVRIDAVRLVWEVEGIREVINEIEIG”, for which the “soluble fraction (log2)” value is -2.1.

With “HMDDATTQLADRLLDLRRKAGYSQEQLADLLGVSRQAISKWEGAQGRPEVDNVVKLAQIYRVSTDFILTGS”, the “soluble fraction (log2)” value was -0.656.

In the case of “HMDDAVSHPDAGHIVTVTKVSADGTAEVMYRGASWRAKTADGSPLTAGSARIVRVDGAALVVEP”, the “soluble fraction (log2)” value came out at 0.116.

“HMDDDDPDQEIAQYYEKLRAMNPDEETKQKLSDEINKLSKMMYSSQEAMVSRNYLDTVFSLPWHQF”: the “soluble fraction (log2)” value is -1.37.

“HMDDEELDALKGIPANEYTQEQIKQISEVFHTLQKNEVKDWLNSLQLRNIELPFELRNEVFSQ”: the “soluble fraction (log2)” value is -0.43.

With “HMDDFPLKRGSKGNRVTLLQNALVKKYGAGILPKYGVDGMFGKEVEAALVHAKIPTTINEANYTKIV”, the “soluble fraction (log2)” value stood at 0.104.

Take “HMDDFSETLLQYIKEKGGHISLNDKTDAGVIYETFGVSKKTFKKAVGDLYKKRLIVLEDTGIRL”: the “soluble fraction (log2)” value stood at 0.0848.

In the case of “HMDDHLSFLAARLPDGASFDTDFDALGIDSFGMIALRAEVEERLGEQIADSDWTKVERPSEILAMLERK”, the “soluble fraction (log2)” value is -1.76.

As for “HMDDLATAYKAMGVDASISDKDLKRAYRKLMSQHHPDKMIAKGVPADMVAMATEKTQEIQAAYDLIERSR”, the “soluble fraction (log2)” value turned out to be 0.0752.

In the case of “HMDDLIIQIELKQEGLEITGLKVLLKEDSVIDEQVKQTIRRKIERFLVNLYGNPNVYVSKFSMGI”, the “soluble fraction (log2)” value is -1.36.

Take “HMDDLTTASIKQQLKALIDEENKNKPLSDQKLTDALKAQGIDISRRTVAKYREAMNIPGSSKRKRF”: the “soluble fraction (log2)” value turned out to be 0.0697.

On to “HMDDMVLEIGPGIGTMTQYLAEAAGKVVAVEIDRNLLPILQETLADYDNVKVIHADVLSLDLEKLVQEE”, for which the “soluble fraction (log2)” value was -0.868.

As to “HMDDPDALITDSQLKAIHVLLGKLKIDDNLKHAYIADVLQLKDIPETLKTLTKHQGSTIIERLNLLIKDA”, the “soluble fraction (log2)” value is -0.0657.

“HMDDPLSQLTPREREVLELMASGASNQGIADALVITVRAVEKYVSSIFGKLGLPSTGSESRRVLAVLTFLR”: the “soluble fraction (log2)” value was -1.32.

As to “HMDDPYAGLRQRAYLFLRERDGAVPEEELIEHVFGSSGNPALWRPLLRQVLGADDRLDLRADGYWALRG”, the “soluble fraction (log2)” value is -0.839.

“HMDDSPTARALRTLDLIHNRPGITAAELADRLGVTERAVRRYVLTLRDAGVPVLGTPGRYGGYQVGK”: the “soluble fraction (log2)” value was -0.0455.

With “HMDDSVTFSEFVRMVDSGQVESVRITGNEVTGSDSTGNTFRTFVPPQYEGLVNRLVERDVAVTAEE”, the “soluble fraction (log2)” value was -0.284.

As to “HMDDSVVFSLNAKGIRLTGAGKYGEAIALFDKAIAAKPGLSGLYFNRAEARRLSGDLPGARSDLEQALAI”, the “soluble fraction (log2)” value is -0.113.
